Experimental data published in US20260356955 (published 2026).
Read-outs that look alike come from different tables or passages of the source.

T1: cynomolgus KLRB1 on CHO-K1 (cynomolgus)
T1 chain: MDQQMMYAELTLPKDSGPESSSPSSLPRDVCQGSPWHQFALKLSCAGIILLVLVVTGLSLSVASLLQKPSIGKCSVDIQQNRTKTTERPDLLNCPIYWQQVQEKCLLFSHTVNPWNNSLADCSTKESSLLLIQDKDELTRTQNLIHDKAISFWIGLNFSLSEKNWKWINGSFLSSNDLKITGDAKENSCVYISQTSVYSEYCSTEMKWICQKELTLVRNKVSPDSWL


Key:
human KLRB1 ECD [1] = biological target: human KLRB1 ECD (human); assay: SPR
human KLRB1 ECD [2] = biological target: human KLRB1 ECD (human); assay: ELISA
[3] = biological target: T1, cynomolgus KLRB1 on CHO-K1; assay: FACS
human KLRB1 on CHO-K1 = human KLRB1 on CHO-K1 (human); assay: FACS
human KLRB1 ECD [4] = biological target: human KLRB1 ECD (human); assay: SPR; remark: listed apart in the source

Chain of human KLRB1 on CHO-K1 (human) (chain, as listed by the source): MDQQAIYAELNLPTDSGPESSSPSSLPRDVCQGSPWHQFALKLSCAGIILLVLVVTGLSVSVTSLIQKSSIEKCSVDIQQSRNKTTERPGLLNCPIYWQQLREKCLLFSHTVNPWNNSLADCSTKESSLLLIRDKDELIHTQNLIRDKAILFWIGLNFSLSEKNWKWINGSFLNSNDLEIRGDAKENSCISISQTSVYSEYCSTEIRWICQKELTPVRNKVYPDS
Chain of human KLRB1 ECD (human) (chain, as listed by the source): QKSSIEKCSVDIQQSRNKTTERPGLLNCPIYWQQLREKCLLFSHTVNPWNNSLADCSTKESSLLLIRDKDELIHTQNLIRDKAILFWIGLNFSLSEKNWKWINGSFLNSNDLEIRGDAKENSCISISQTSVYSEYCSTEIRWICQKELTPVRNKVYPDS

Binder | Kd (human KLRB1 ECD [1]) | EC50 (human KLRB1 ECD [2]) | binding result [3] | EC50 (human KLRB1 on CHO-K1) | Kd (human KLRB1 ECD [4])
Hu50A8F2-15 (antibody, V domains shown) VH: QVQLVQSGAEVKKPGASVKVSCKASGYTFIDYYINWVRQAPGQGLEWIGWIFPGSGHTKYNENFKGKVTLTVDTSTSTVYMELSSLRSEDTAVYFCARGDRSALGYFDYWGQGTTVTVSS VL: DIQLTQSPSSLSASVGDRVTITCTASSSVSSTYLHWYQQKPGKSPKLLIYSTSNLASGVPSRFSGSGSGTDYTLTISSLQPEDFATYYCHQYHRSPLTFGQGTKLEIK | – | 0.0148 nM | no binding | 5.39 nM | –
Hu50A8F2-14 (antibody, V domains shown) VH: QVQLVQSGAEVKKPGASVKVSCKASGYTFIDYYINWVRQAPGQGLEWIGWIFPGSGHTKYNENFKGKVTLTVDTSTSTVYMELSSLRSEDTAVYFCARGDRSALGYFDYWGQGTTVTVSS VL: DIQMTQSPSSLSASVGDRVTITCTASSSVSSTYLHWYQQKPGKAPKLLIYSTSNLASGVPSRFSGSGSGTDYTLTISSLQPEDFATYYCHQYHRSPLTFGQGTKLEIK | – | 0.0121 nM | no binding | 5.12 nM | –
Hu50A8F2-05 (antibody, V domains shown) VH: QVQLVQSGAEVKKPGASVKVSCKASGYTFIDYYINWVRQAPGQGLEWMGWIFPGSGHTKYNENFKGKVTMTVDTSTSTVYMELSSLRSEDTAVYYCARGDRSALGYFDYWGQGTTVTVSS VL: DIQMTQSPSSLSASVGDRVTITCTASSSVSSTYLHWYQQKPGKAPKLLIYSTSNLASGVPSRFSGSGSGTDFTLTISSLQPEDFATYYCHQYHRSPLTFGQGTKLEIK | – | 0.0183 nM | no binding | 5.51 nM | –
Hu50A8F2-07 (antibody, V domains shown) VH: QVQLVQSGAEVKKPGASVKVSCKASGYTFIDYYINWVRQAPGQGLEWMGWIFPGSGHTKYNENFKGKVTMTVDTSTSTVYMELSSLRSEDTAVYYCARGDRSALGYFDYWGQGTTVTVSS VL: DIQLTQSPSSLSASVGDRVTITCTASSSVSSTYLHWYQQKPGKSPKLLIYSTSNLASGVPSRFSGSGSGTDYTLTISSLQPEDFATYYCHQYHRSPLTFGQGTKLEIK | – | 0.0174 nM | no binding | 5.72 nM | –
Hu50A8F2-12 (antibody, V domains shown) VH: QVQLVQSGAEVKKPGASVKVSCKASGYTFIDYYINWVRQAPGQGLEWMGWIFPGSGHTKYNENFKGKVTLTVDTSTSTVYMELSSLRSEDTAVYYCARGDRSALGYFDYWGQGTTVTVSS VL: DIQLTQSPSSLSASVGDRVTITCTASSSVSSTYLHWYQQKPGKSPKLLIYSTSNLASGVPSRFSGSGSGTDYTLTISSLQPEDAATYYCHQYHRSPLTFGQGTKLEIK | – | 0.014 nM | no binding | 5.77 nM | –
Hu50A8F2-09 (antibody, V domains shown) VH: QVQLVQSGAEVKKPGASVKVSCKASGYTFIDYYINWVRQAPGQGLEWMGWIFPGSGHTKYNENFKGKVTLTVDTSTSTVYMELSSLRSEDTAVYYCARGDRSALGYFDYWGQGTTVTVSS VL: DIQMTQSPSSLSASVGDRVTITCTASSSVSSTYLHWYQQKPGKAPKLLIYSTSNLASGVPSRFSGSGSGTDFTLTISSLQPEDFATYYCHQYHRSPLTFGQGTKLEIK | – | 0.0189 nM | no binding | 5.4 nM | –
Hu50A8F2-02 (antibody, V domains shown) VH: QVQLVQSGAEVKKPGASVKVSCKASGYTFIDYYINWVRQAPGQGLEWMGWIFPGSGHTKYNENFKGRVTMTRDTSTSTVYMELSSLRSEDTAVYYCARGDRSALGYFDYWGQGTTVTVSS VL: DIQMTQSPSSLSASVGDRVTITCTASSSVSSTYLHWYQQKPGKAPKLLIYSTSNLASGVPSRFSGSGSGTDYTLTISSLQPEDFATYYCHQYHRSPLTFGQGTKLEIK | – | 0.0167 nM | no binding | 5.81 nM | –
Hu22F10G3-4.4 (antibody, V domains shown) VH: QVQLQESGPGLVKPSQTLSLTCTVSGYSLTSDFAWNWIRQFPGKGLEWMGDIRYSGSTDYNPSLKGRSTISRDTSKNQFFLKLSSVTAADTAVYYCARGGYYGYDEGYPMDYWGQGTLVTVSS VL: DIVMTQSPDSLAVSLGERATISCRASESVDVYGNSFMHWYQQKPGQPPKLLIYLAFNLKSGVPARFSGSGSGTDFTLTISSLQAEDVATYYCQQNNEDPFTFGQGTKLEIK | – | – | – | – | 0.121 nM
5B1B11 chimeric (antibody, V domains shown) VH: QVQLQQPGAELVKPGASVKLSCKASGYTFTNYWMHWVKQRPGQGLEWIGEINPSNGRTNFNEKFKSKATLTVDKSSSTAYMQLSSLTSEDSAVYYCARSYDSYYAAVDYWGQGTSVTVSS VL: QIVLTQSPAIMSASLGEEITLTCSASSSVSYMHWYQQKSGTSPKLLIYTTSNLPSGVPSRFSGSGSGTFYSLTISSVEAEDAADYYCHQWSTYPYTFGGGTKLEIK | 0.255 nM | – | – | – | –

The remaining lines, values ahead:

Kd (human KLRB1 ECD [1]) | EC50 (human KLRB1 ECD [2]) | binding result [3] | EC50 (human KLRB1 on CHO-K1) | Kd (human KLRB1 ECD [4]) | Binder
14.8 nM | – | – | – | – | 9C10G11 (antibody, V domains shown) VH: QVQLKESGPGLVAPSQSLSITCTVSGFSLTGYGVNWVRQPPGKGLEWLGMIWGDGSTDYNSALKSRLSISKDNSKSQVFLKMNSLQTDDTARYYCARTYNNYHYWYFDVWGAGTTVTVSS VL: DIQMTQSPASLSASVGETVTITCRASGNIHNYLAWYQQKQGKSPQLLVYNAKTLADGVPSRFSGSGSGTQYSLKINSLQPEDFGSYYCQHFWSTPYTFGGGTKLEIK
– | 0.0104 nM | no binding | 5.06 nM | – | Hu50A8F2-13 (antibody, V domains shown) VH: QVQLVQSGAEVKKPGASVKVSCKASGYTFIDYYINWVRQAPGQGLEWIGWIFPGSGHTKYNENFKGKVTLTVDTSTSTVYMELSSLRSEDTAVYFCARGDRSALGYFDYWGQGTTVTVSS VL: DIQMTQSPSSLSASVGDRVTITCTASSSVSSTYLHWYQQKPGKAPKLLIYSTSNLASGVPSRFSGSGSGTDFTLTISSLQPEDFATYYCHQYHRSPLTFGQGTKLEIK
– | 0.0187 nM | no binding | 5.67 nM | – | Hu50A8F2-10 (antibody, V domains shown) VH: QVQLVQSGAEVKKPGASVKVSCKASGYTFIDYYINWVRQAPGQGLEWMGWIFPGSGHTKYNENFKGKVTLTVDTSTSTVYMELSSLRSEDTAVYYCARGDRSALGYFDYWGQGTTVTVSS VL: DIQMTQSPSSLSASVGDRVTITCTASSSVSSTYLHWYQQKPGKAPKLLIYSTSNLASGVPSRFSGSGSGTDYTLTISSLQPEDFATYYCHQYHRSPLTFGQGTKLEIK
– | 0.0144 nM | no binding | 5.43 nM | – | Hu50A8F2-11 (antibody, V domains shown) VH: QVQLVQSGAEVKKPGASVKVSCKASGYTFIDYYINWVRQAPGQGLEWMGWIFPGSGHTKYNENFKGKVTLTVDTSTSTVYMELSSLRSEDTAVYYCARGDRSALGYFDYWGQGTTVTVSS VL: DIQLTQSPSSLSASVGDRVTITCTASSSVSSTYLHWYQQKPGKSPKLLIYSTSNLASGVPSRFSGSGSGTDYTLTISSLQPEDFATYYCHQYHRSPLTFGQGTKLEIK
– | 0.0103 nM | no binding | 5.27 nM | – | Hu50A8F2-16 (antibody, V domains shown) VH: QVQLVQSGAEVKKPGASVKVSCKASGYTFIDYYINWVRQAPGQGLEWIGWIFPGSGHTKYNENFKGKVTLTVDTSTSTVYMELSSLRSEDTAVYFCARGDRSALGYFDYWGQGTTVTVSS VL: DIQLTQSPSSLSASVGDRVTITCTASSSVSSTYLHWYQQKPGKSPKLLIYSTSNLASGVPSRFSGSGSGTDYTLTISSLQPEDAATYYCHQYHRSPLTFGQGTKLEIK
– | 0.0111 nM | no binding | 5.44 nM | – | Hu50A8F2-08 (antibody, V domains shown) VH: QVQLVQSGAEVKKPGASVKVSCKASGYTFIDYYINWVRQAPGQGLEWMGWIFPGSGHTKYNENFKGKVTMTVDTSTSTVYMELSSLRSEDTAVYYCARGDRSALGYFDYWGQGTTVTVSS VL: DIQLTQSPSSLSASVGDRVTITCTASSSVSSTYLHWYQQKPGKSPKLLIYSTSNLASGVPSRFSGSGSGTDYTLTISSLQPEDAATYYCHQYHRSPLTFGQGTKLEIK
0.0591 nM | – | – | – | – | 5A11D10 chimeric (antibody, V domains shown) VH: DVQLQESGPGQVKPSQSLSLTCTVTGYSLTSDFAWNWIRQFPGNKLEWMGDIRYSGSTDYNPSLKTRSSITRDTSKNQFFLHLNSVTTEDTATYYCARGGYYGYDEGYPMDYWGQGTSVTVSS VL: NIVLTQSPASLAVSLGQRATISCRASESVDVYGNSFMHWYQQKAGQPPKLLIYLAFNLKSGVPARFSGSGSRTDFTLTIDPVEADDAATYYCQQNNEDPFTFGSGTKLEIK
4.4 nM | – | – | – | – | 52G9B12B5 chimeric (antibody, V domains shown) VH: QVQLQQSGAELMQPGTSVKIPCKATGYTFSSFWMEWVKQRPGHGLEWIGEIFPGSGSTNYNEKFKGKATFTADTSSNTAYMQLSSLTSEDSAVYYCATLITTGLTYWGQGTLVTVSA VL: NIVMTQSHKFMSTSVGDRVSITCKASQDVNTAVAWYQQIPGRSPKLLIYWASTRHTGVPDRFTGSGSGTDYTLTISSVQAEDLAFYYCQQHYRIPFTFGAGTKLELK
– | – | – | – | 0.13 nM | Hu22F10G3-4.2 (antibody, V domains shown) VH: QVQLQESGPGLVKPSQTLSLTCTVSGYSLTSDFAWNWIRQFPGKGLEWMGDIRYSGSTDYNPSLKGRSTISRDTSKNQFFLKLSSVTAADTAVYYCARGGYYGYDEGYPMDYWGQGTLVTVSS VL: DIVMTQSPDSLAVSLGERATINCRASESVDVYGNSFMHWYQQKPGQPPKLLIYLAFNLKSGVPARFSGSGSGTDFTLTISSLQAEDVAVYYCQQNNEDPFTFGQGTKLEIK
– | – | – | – | 0.122 nM | Hu22F10G3-3.1 (antibody, V domains shown) VH: QVQLQESGPGLVKPSQTLSLTCTVSGYSLTSDFAWNWIRQHPGKGLEWMGDIRYSGSTDYNPSLKGRSTISRDTSKNQFSLKLSSVTAADTAVYYCARGGYYGYDEGYPMDYWGQGTLVTVSS VL: DIVMTQSPDSLAVSLGERATINCRASESVDVYGNSFMHWYQQKPGQPPKLLIYLAFNLKSGVPDRFSGSGSGTDFTLTISSLQAEDVAVYYCQQNNEDPFTFGQGTKLEIK
